Biological target: T1, native human CD4 on the cell surface (human, UniProt P01730 26-458)
T1 construct: whole, on cells; also called CD4 on SupT1 cells; CD4 on human PBL/PBMC
Assay: flow cytometry on SupT1 cells; half-maximal fluorescence, four-parameter fit
Experimental: The avidity and affinity determinations described above were performed with recombinant CD4 (rCD4). To determine the avidity of the human monoclonal antibodies for native CD4 (nCD4). […] Specifically, serial dilutions of antibody were incubated with SupT1 cells for 6 hr on ice, washed and detected any bound antibody with FITC-goat anti-human Fcγ.
*Human monoclonal antibodies were incubated in serial dilutions with SupT1 cells for 6 hrs, washed twice and incubated with FITC-conjugated goat anti-human Fcγ antisera, washed and fixed. The Ka was calculated from the concentration of antibody yielding one-half of the maximum fluorescence as determined from a four-parameter fit.

Ka [M⁻¹] | Binder
1.9e+09 | human IgG kappa anti-CD4 monoclonal antibody 6G5 (antibody, V domains shown, Human IgG1 kappa from hybridoma of an HC2/KCo5/JHD/JCKD mouse; CDR3 VINWFDP (VH4-34, JH5); l.c; also called 6G5.1) VH: QVQLQQWGAGLLKPSETLSLTCAVYGGSFSGYYWSWIRQPPGKGLEWIGEINHSGSTNYNPSLKSRVTISVDTSKNQFSLKLSSVTAADTAVYYCARVINWFDPWGQGTLVTVSS VL: DIQMTQSPSSVSASVGDRVTITCRASQDISSWLAWYQHKPGKAPKLLIYAASSLQSGVPSRFSGSGSGTDFTLTISSLQPEDFATYYCQQANSFPYTFGQGTKLEIK
1.8e+09 | human IgG kappa anti-CD4 monoclonal antibody 10C5 (antibody, V domains shown, Human IgG1 kappa from hybridoma of an HC2/KCo5/JHD/JCKD mouse; CDR3 VINWFDP (VH4-34, JH5); l.c; same primary B cell as 6G5; also called 10C5.6) VH: QVQLQQWGAGLLKPSETLSLTCAVYGGSFSGYYWSWIRQPPGKGLEWIGEINHSGSTNYNPSLKSRVTISVDTSKNQFSLKLSSVTAADTAVYYCARVINWFDPWGQGTLVTVSS VL: DIQMTQSPSSVSASVGDRVTITCRASQDISSWLAWYQHKPGKAPKLLIYAASSLQSGVPSRFSGSGSGTDFTLTISSLQPEDFATYYCQQANSFPYTFGQGTKLEIK

From US20100287629A1 (published 2010)
